{"source": "paper PMC8333356", "about": "(Nature Communications, 2021)", "data": [{"target": "receptor binding domain (RBD) of SARS-CoV-2 spike (SARS-CoV-2 Wuhan-Hu-1, UniProt P0DTC2)", "experiment": "ELISA", "details": "both partners purified", "values": [{"binder": "Nb21 (VHH, Cloned in pET-21b(+); also called class I Nb; source: E. coli BL21 (DE3), purified (cobalt resin, Superdex 75)) VHH: QVQLVESGGGLVQAGGSLRLSCAVSGLGAHRVGWFRRAPGKEREFVAAIGANGGNTNYLDSVKGRFTISRDNAKNTIYLQMNSLKPQDTAVYYCAARDIETAEYTYWGQGTQVTVSS", "binding result": "binds"}, {"binder": "Nb34 (VHH, Cloned in pET-21b(+)) VHH: DVQLVESGGGLVQAGGSLRLSCAASGFTFSNYVMYWGRQAPGKGREWVSGIDSDGSDTAYASSVKGRFTISRDNAKNTLYLQMNNLKPEDTALYYCVKSKDPYGSPWTRSEFDDYWGQGTQVTVSS", "binding result": "binds"}, {"binder": "Nb17 (VHH, Cloned in pET-21b(+); also called class III Nb; source: E. coli BL21 (DE3), purified (cobalt resin, Superdex 75)) VHH: HVQLVESGGGLVQAGGSLRLSCAASGSIFSSNAMSWYRQAPGKQRELVASITSGGNADYADSVKGRFTISRDKNTVYPEMSSLKPADTAVYYCHAVGQEASAYAPRAYWGQGTQVTVSS", "binding result": "binds"}, {"binder": "Nb95 (VHH, Cloned in pET-21b(+)) VHH: QVQLVESGGGLVQAGGSLRLSCAASGRTFSSYSMGWFRQAQGKEREFVATINGNGRDTYYTNSVKGRFTISRDDATNTVYLQMNSLKPEDTAIYYCAADKDVYYGYTSFPNEYEYWGQGTQVTVSS", "binding result": "binds"}]}]}
